# Patent US20160368961A1 (GLYTECH, published 2016)
# Positions of bridges follow the written chain, without caps; N, C: chain ends. Primed or numbered codes have the meaning given here. No end group written: not given here. *: point of attachment. dimannose = dimannose sugar chain attached to the residue; GlcNAc(3) = GlcNAc attached to the Cys side chain; Biotin = O=C1N[C@H]2[C@H](CS[C@H]2CCCCC(=O)*)N1; disialo = disialo sugar chain; GlcNAc = N-acetylglucosamine
# B1: S1C(disialo)-SRIF28 (peptide)
# peptide: C(disialo sugar chain)ANSNPAMAPRERKAGCKNFFWKTFTSC
# modifications: disulfide 17-28
# B2: F25C(disialo)-SRIF28 (peptide)
# peptide: SANSNPAMAPRERKAGCKNFFWKTC(disialo)TSC
# modifications: disulfide 17-28
# B3: S1N(disialo).N19C(diMan)-SRIF28 (peptide)
# peptide: N(disialo sugar chain)ANSNPAMAPRERKAGCKC(dimannose)FFWKTFTSC
# modifications: disulfide 17-28
# B4: S1C(disialo).N5C(disialo).A9C(disialo)-SRIF28 (peptide)
# peptide: C(disialo sugar chain)ANSC(disialo sugar chain)PAMC(disialo sugar chain)PRERKAGCKNFFWKTFTSC
# modifications: disulfide 17-28
# B5: S1C(disialo).N5C(disialo)-SRIF28 (peptide)
# peptide: C(disialo sugar chain)ANSC(disialo sugar chain)PAMAPRERKAGCKNFFWKTFTSC
# modifications: disulfide 17-28
# B6: S1C(disialo).N19C(GlcNAc)-SRIF28 (peptide)
# peptide: C(disialo sugar chain)ANSNPAMAPRERKAGCKC(GlcNAc)FFWKTFTSC
# modifications: disulfide 17-28
# B7: S1C(diGlcNAc)-SRIF28 (peptide)
# peptide: C(diGlcNAc sugar chain)ANSNPAMAPRERKAGCKNFFWKTFTSC
# modifications: disulfide 17-28
# B8: S1C(GlcNAc)-SRIF28 (peptide)
# peptide: C(GlcNAc(3))ANSNPAMAPRERKAGCKNFFWKTFTSC
# modifications: disulfide 17-28
# B9: 29C(disialo)-SRIF28 (peptide)
# peptide: SANSNPAMAPRERKAGCKNFFWKTFTSCC
# modifications: disialo sugar chain attached Cys added after Cys28 (position 29); disulfide bond Cys17-Cys28
# B10: N5C(disialo).A9C(disialo)-SRIF28 (peptide)
# peptide: SANSC(disialo)PAMC(disialo)PRERKAGCKNFFWKTFTSC
# modifications: disulfide 17-28
# B11: S1C(disialo)-SRIF28-amide (peptide)
# peptide: C(disialo sugar chain)ANSNPAMAPRERKAGCKNFFWKTFTSC-NH2
# modifications: disulfide 17-28
# B12: Biotin-S1C(disialo)-SRIF28 (peptide)
# peptide: Biotin-C(disialo sugar chain)ANSNPAMAPRERKAGCKNFFWKTFTSC
# modifications: disulfide 17-28
# Assays:
# [1] = molecular target: somatostatin receptors SSTR1-SSTR5 (receptor not singled out in the sentence); assay: competitive radioligand binding
# [2] = molecular target: T1, somatostatin receptor SSTR2 (Human, UniProt P30874 1-369); assay: cell-based or functional assay
# T1 sequence (P30874 whole entry): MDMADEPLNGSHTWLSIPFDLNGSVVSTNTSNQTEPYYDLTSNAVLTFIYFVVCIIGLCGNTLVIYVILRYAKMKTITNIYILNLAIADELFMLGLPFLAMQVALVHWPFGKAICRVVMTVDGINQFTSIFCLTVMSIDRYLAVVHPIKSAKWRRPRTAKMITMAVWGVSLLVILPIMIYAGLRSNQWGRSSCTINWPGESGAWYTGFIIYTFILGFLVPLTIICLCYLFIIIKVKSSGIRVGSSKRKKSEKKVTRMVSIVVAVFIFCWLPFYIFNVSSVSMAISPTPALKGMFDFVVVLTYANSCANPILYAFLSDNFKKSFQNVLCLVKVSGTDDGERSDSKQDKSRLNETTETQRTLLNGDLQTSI
# [3] = molecular target: somatostatin receptor SSTR4 (Human, UniProt P31391 1-388); assay: cell-based or functional assay
# Sequence of somatostatin receptor SSTR4 (P31391 whole entry): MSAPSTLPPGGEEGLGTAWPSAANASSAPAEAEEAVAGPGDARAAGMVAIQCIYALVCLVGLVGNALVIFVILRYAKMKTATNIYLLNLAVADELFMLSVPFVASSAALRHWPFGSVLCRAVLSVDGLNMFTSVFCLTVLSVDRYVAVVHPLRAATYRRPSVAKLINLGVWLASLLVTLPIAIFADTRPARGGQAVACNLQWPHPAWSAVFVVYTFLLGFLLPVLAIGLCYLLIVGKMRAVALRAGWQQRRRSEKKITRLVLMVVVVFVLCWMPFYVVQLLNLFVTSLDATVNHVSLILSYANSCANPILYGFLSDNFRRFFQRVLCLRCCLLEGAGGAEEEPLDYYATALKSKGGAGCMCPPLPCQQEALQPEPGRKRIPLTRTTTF
# [4] = molecular target: somatostatin receptor SSTR2 (human) (UniProt P30874); assay: competitive radioligand binding
# Sequence of somatostatin receptor SSTR2 (human) (P30874 whole entry): as the sequence (P30874 whole entry) above
# [5] = molecular target: somatostatin receptor SSTR1 (human) (UniProt P30872); assay: competitive radioligand binding
# Sequence of somatostatin receptor SSTR1 (human) (P30872 whole entry): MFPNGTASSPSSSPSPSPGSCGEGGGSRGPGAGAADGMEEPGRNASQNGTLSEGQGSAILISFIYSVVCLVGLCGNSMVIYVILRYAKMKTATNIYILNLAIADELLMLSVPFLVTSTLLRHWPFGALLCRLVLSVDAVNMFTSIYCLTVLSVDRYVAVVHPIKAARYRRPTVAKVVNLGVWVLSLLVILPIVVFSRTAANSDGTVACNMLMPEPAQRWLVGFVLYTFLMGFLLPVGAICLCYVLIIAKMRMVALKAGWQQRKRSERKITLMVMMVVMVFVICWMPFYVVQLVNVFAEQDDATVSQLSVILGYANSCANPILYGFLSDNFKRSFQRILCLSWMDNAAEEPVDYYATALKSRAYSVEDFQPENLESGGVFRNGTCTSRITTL
# [6] = molecular target: somatostatin receptor SSTR1 (Human, UniProt P30872 1-391); assay: competitive radioligand binding
# Sequence of somatostatin receptor SSTR1 (P30872 whole entry): as above
# [7] = molecular target: T1, somatostatin receptor SSTR2; assay: competitive radioligand binding
# [8] = molecular target: somatostatin receptor SSTR3 (Human, UniProt P32745 1-418); assay: competitive radioligand binding
# Sequence of somatostatin receptor SSTR3 (P32745 whole entry): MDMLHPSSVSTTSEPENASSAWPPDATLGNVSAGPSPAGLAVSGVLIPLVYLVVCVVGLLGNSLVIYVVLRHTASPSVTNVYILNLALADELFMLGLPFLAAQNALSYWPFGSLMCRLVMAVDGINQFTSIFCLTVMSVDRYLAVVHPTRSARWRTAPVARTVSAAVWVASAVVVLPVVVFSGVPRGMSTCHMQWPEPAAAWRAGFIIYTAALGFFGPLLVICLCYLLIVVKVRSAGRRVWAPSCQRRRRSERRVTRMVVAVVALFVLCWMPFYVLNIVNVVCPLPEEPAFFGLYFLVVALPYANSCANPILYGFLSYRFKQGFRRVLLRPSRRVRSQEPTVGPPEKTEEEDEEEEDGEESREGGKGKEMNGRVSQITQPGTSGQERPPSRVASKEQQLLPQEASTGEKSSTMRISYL
# [9] = molecular target: Somatostatin receptor SSTR5 (UniProt P35346 1-364, limits assumed); assay: cell-based or functional assay
# Sequence of Somatostatin receptor SSTR5 (P35346 whole entry): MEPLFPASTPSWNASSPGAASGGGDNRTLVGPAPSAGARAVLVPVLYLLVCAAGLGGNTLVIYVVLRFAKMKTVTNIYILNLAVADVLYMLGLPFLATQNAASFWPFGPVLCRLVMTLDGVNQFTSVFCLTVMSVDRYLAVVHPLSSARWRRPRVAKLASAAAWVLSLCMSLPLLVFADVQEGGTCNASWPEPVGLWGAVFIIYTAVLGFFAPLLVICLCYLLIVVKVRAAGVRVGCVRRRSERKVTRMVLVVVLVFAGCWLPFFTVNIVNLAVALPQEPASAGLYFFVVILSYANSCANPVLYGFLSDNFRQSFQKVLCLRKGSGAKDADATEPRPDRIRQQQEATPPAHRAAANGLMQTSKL
# [10] = molecular target: Somatostatin receptor SSTR2 (UniProt P30874 1-369, limits assumed); assay: cell-based or functional assay
# Sequence of Somatostatin receptor SSTR2 (P30874 whole entry): as the sequence (P30874 whole entry) above
# [11] = molecular target: Somatostatin receptor SSTR4 (UniProt P31391 1-388, limits assumed); assay: cell-based or functional assay
# Sequence of Somatostatin receptor SSTR4 (P31391 whole entry): as the sequence (P31391 whole entry) above
# [12] = molecular target: Somatostatin receptor SSTR3 (human recombinant, CHO-K1 cells) (human, UniProt P32745 1-418); assay: competitive radioligand binding
# Sequence of Somatostatin receptor SSTR3 (human recombinant, CHO-K1 cells) (P32745 whole entry): as the sequence (P32745 whole entry) above
# [13] = molecular target: Somatostatin receptor SSTR1 (human recombinant, CHO-K1 cells) (human, UniProt P30872 1-391); assay: competitive radioligand binding
# Sequence of Somatostatin receptor SSTR1 (human recombinant, CHO-K1 cells) (P30872 whole entry): as the sequence (P30872 whole entry) above
molecule,measurement,setting,value
S1C(disialo).N5C(disialo)-SRIF28 (peptide),ratio of Ki to the Ki of unglycosylated SRIF14,[1],15.7 ratio (:1)
B1,IC50 of cAMP production suppressing action (agonist activity),[2],0.075 nM
same,IC50 of cAMP production suppressing action (agonist activity),[3],0.065 nM
B2,Ki as fold of that of SRIF14,[4],310 to 5300 fold
same,Ki as fold of that of SRIF14,[5],310 to 5300 fold
same,Ki,[6],> 828 nM
same,Ki,[7],> 531 nM
same,Ki,[8],> 342 nM
B3,Ki,[7],3 nM
B4,fold difference in Ki against the glycosylated forms of Examples 1 and 21,[1],10 fold
B5,IC50 of cAMP production suppressing action (agonist activity),[9],0.09 nM
B6,IC50 of cAMP production suppressing action (agonist activity),[10],0.08 nM
B7,IC50 of cAMP production suppressing action (agonist activity),[11],0.05 nM
B8,IC50 of cAMP production suppressing action (agonist activity),[10],0.04 nM
B9,IC50,[12],7 nM
B10,IC50,[13],30 nM
B11,Ki,[7],0.7 nM
B12,Ki,[8],1 nM
